Source: a protein production outcome set (Wang et al. 2014)

Test: label from the status in PepcDB records

Row | Sequence | protein production
1 | MTEARAGLFARRRYLPALAVLYAALWLALAIEPHDRSDWLLENALVLGFGVALYATRRWFVFSRVSYTLIFLYLCLHAVGAHYTYSLVPYDAWWQRLTGHSLDQLLGWERNQFDRLVHFSYGLLLAYPIREIFLRVVDVRGFWGYLLPLDVALSTSALYELIEWGAAEFFGGELGVAYLGTQGDIWDAQKDMALAGLGALIAMLLTALFNRGARRDPARDWVDRMKPGHT | failed
2 | MTEASAPLIDVDPRLLEVLVCPVTRGPLEYDRAKGELISRAAKLAYPIRDGVPIMLPEEARELEGLEHHHHHH | not failed
3 | MTEDQVEILEYNFNKVNKHPDPTTLCLIAAEAGLTEEQTQKWFKQRLAEWRRSEGLPSECRSVTD | not failed
4 | MTEDRLSAEDKKFLEVERALKEAALNPLRHATEELFGDFLKMENITEICYNGNKVVWVLKNNGEWQPFDVRDRKAFSLSRLMHFARCCASFKKKTIDNYENPILSSNLANGERVQIVLSPVTVNDETISISIRIPSKTTYPHSFFEEQGFYNLLDNKEQAISAIKDGIAIGKNVIVCGGTGSGKTTYIKSIMEFIPKEERIISIEDTEEIVFKHHKNYTQLFFGGNITSADCLKSCLRMRPDRIILGELRSSEAYDFYNVLCSGHKGTLTTLHAGSSEEAFIRLANMSSSNSAARNIKFESLIEGFKDLIDMIVHINHHKQCDEFYIKHR | not failed
5 | MTEEHVVLLDEQDKPSGTLEKYAAHTLNTPLHLAFSCWLFNEDGQLLVTRRSLSKKAWPGVWTNSVCGHPQQGETTEEAIIRRCRFELGVEITDLTPVYPHFSYRATDPNGIVENEVCPVFAARATSVLQVNSEEVMDYQWSEFKSVWKSLLATPWAFSPWMVMQASDEQARERLLNYCQR | not failed
6 | MTEGLAVELAGLRSFSIVMPAYNVVTQRGERIFRETLESIAASCRYLQQHFPYTPEGELILISDGSTDRTCDVAMAGWPNAVPLQLVGLPTNVGIAAARNIGVRLAKGEVIFFCDADDLYRPEHLFLALSVLNQPLPEPYAPAYFGAVRTGVYCRDRLHPYWHKSLEQTLVLNLAVRREVHEFIGGFPEDEVFRQFRYGAEDVAYAYWLHQFCHTARLEQRTVEYRRFPNSVFDRQLKKFQAAPGTVADDLDEGDRQQEAQIRQIMATRLQELQAKAAQGVALEHHHHHH | failed
7 | MTEHSLWRFSRALHRALNDRQTEELATIIDDNIDWAIYGPIDMFPFFGARQGKAAVLEVCRQIADSVRIYRYHRESVMLGIDSAASMVRYSLTAAGTNRPISVRMALFTQFQNGRLTNLRMVLDTFDLVEQALGRPIHLPKIA | not failed
8 | MTEIALIGNPNSGKTSLFNLLTGTSQRVGNWPGVTVERKSGNVKKLKEISVQDLPGIYSMSPYSPEEKVARDYLLSNHADSILNVVDATNLERNLYLTTQLIETGIPVTIALNMSDVLKNQGKSINSDKLAYQMGVPVVATSALKNTGVDKAVKKASQTTKGSVDSVQYPTYDAKFEAAIAQIIEVLGQTVPERSSRFYAIKLFERDRLVEEELDLSPFQKKEIKDIIQITEEVFTEDSESIVINQRYAFIERVSQMAQSQDNDFKMSASDKIDKIVTNRVLALPIFAVVMFLVYYLSIQTVGTMGTDWVNDILFGKYVPEFVTGVLEALKVQAWLQSLIIDGVVAGVGTVLGFLPQIFVLFICLGILEDIGYMSRIAFVMDRIFRRFGLSGKSFIPMLISTGCGVPGIMASRTIENERDRRITIMTTTFMPCSAKLSVIALIAGAFFPHNPWIAPSAYFMGMIAIILSGIALKKTSFLGGYTSPFIMELPSYHLPKVDAVLRYAFGKAMSFVKRAGTIIFSLTVLIWFMSSYNFTLHSVDTENSILASLGRLLAWIFTPLGFGNWKATVAALTGLAAKETVVATFGILYNNPDATETTHSLWVSLQGDYTALAAYSFLTFNLLCAPCFASIGAIKREMGNLKWTLVAIAYQTGLAYLVSLIIYQLGLVAFYGKPVTLWTGLALVLLLVMLYFIIRKPRQVKEKVITLDNLSLSHN | failed
9 | MTEIDSNLKDAQSVAVSGHVRPDGDCVGSTLAVYNYIKDYYPDIKARLYLEPSPNIFKFMQRADEIDSSYADDTVYDLFIACDCSDTGRLGSAAKYFESAKRTLCIDHHVTNGAFADTNYIFPDASSTCELVFELLPKERITIQIAECIYTGMVHDTGVFQYSCTSKKTMDIAGSLMEMGIDYSRIIDDTFYTKTFAQNKIMGQALLNAALYLNGDVILSAVSRAEMEKYDVLPKHLDGIVNQLRVTKDIKVAVFLYENEDGTYKGSLRVNGDYDVAKVASVFGGGGHVKAAGFTIEGPLEVATDRILTAIKDNI | failed
